Test results: IntAct's records for PubMed 32296183

B1: Golgi SNAP receptor complex member 2 (Homo sapiens), O14653 (parent)
chain: MDPLFQQTHKQVHEIQSCMGRLETADKQSVHIVENEIQASIDQIFSRLERLEILSSKEPPNKRQNARLRVDQLKYDVQHLQTALRNFQHRRHAREQQERQREELLSRTFTTNDSDTTIPMDESLQFNSSLQKVHNGMDDLILDGHNILDGLRTQRLTLKGTQKKILDIANMLGLSNTVMRLIEKRAFQDKYFMIGGMLLTCVVMFLVVQYLT
partner: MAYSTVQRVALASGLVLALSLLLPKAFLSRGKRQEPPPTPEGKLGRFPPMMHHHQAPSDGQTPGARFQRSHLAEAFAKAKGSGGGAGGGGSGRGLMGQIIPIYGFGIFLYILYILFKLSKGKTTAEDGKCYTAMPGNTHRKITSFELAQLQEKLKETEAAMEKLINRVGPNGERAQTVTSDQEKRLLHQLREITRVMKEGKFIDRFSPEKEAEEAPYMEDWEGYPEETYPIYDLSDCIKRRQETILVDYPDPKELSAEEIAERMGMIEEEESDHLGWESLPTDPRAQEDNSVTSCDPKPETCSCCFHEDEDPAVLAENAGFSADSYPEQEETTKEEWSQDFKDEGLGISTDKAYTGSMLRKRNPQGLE
B2: Dolichol kinase (Homo sapiens), Q9UPQ8 (parent)
chain: MTRECPSPAPGPGAPLSGSVLAEAAVVFAVVLSIHATVWDRYSWCAVALAVQAFYVQYKWDRLLQQGSAVFQFRMSANSGLLPASMVMPLLGLVMKERCQTAGNPFFERFGIVVAATGMAVALFSSVLALGITRPVPTNTCVILGLAGGVIIYIMKHSLSVGEVIEVLEVLLIFVYLNMILLYLLPRCFTPGEALLVLGGISFVLNQLIKRSLTLVESQGDPVDFFLLVVVVGMVLMGIFFSTLFVFMDSGTWASSIFFHLMTCVLSLGVVLPWLHRLIRRNPLLWLLQFLFQTDTRIYLLAYWSLLATLACLVVLYQNAKRSSSESKKHQAPTIARKYFHLIVVATYIPGIIFDRPLLYVAATVCLAVFIFLEYVRYFRIKPLGHTLRSFLSLFLDERDSGPLILTHIYLLLGMSLPIWLIPRPCTQKGSLGGARALVPYAGVLAVGVGDTVASIFGSTMGEIRWPGTKKTFEGTMTSIFAQIISVALILIFDSGVDLNYSYAWILGSISTVSLLEAYTTQIDNLLLPLYLLILLMA
partner: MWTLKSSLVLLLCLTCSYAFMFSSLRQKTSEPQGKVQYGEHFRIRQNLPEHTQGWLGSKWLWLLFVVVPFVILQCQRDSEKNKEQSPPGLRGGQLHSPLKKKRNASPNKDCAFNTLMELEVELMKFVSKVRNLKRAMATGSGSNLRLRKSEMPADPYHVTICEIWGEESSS
B3: Golgi SNAP receptor complex member 2 (Homo sapiens), O14653 (parent)
chain: B1 chain
partner: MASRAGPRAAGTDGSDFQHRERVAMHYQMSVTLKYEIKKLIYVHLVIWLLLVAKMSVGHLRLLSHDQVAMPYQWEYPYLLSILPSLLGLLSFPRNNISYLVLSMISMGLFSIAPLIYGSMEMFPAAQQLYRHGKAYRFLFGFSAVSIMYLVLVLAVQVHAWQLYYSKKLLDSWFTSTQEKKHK
B4: Dolichol kinase (Homo sapiens), Q9UPQ8 (parent)
chain: B2 chain
partner: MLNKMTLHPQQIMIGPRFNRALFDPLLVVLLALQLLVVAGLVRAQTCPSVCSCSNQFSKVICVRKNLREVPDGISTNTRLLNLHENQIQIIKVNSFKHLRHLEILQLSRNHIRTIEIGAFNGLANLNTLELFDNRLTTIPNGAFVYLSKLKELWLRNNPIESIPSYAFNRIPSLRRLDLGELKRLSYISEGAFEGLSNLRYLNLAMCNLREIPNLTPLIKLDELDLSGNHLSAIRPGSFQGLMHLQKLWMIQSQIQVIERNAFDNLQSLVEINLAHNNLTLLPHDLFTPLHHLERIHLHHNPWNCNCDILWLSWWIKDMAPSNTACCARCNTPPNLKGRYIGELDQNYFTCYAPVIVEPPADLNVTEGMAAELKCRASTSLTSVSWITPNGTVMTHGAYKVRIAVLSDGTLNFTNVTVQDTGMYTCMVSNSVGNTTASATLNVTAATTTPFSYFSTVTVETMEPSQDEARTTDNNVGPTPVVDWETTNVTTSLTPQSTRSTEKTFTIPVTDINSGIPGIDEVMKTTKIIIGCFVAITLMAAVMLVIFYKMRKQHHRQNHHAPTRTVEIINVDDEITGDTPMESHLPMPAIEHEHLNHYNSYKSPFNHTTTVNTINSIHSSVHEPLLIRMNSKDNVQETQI
B5: Golgi SNAP receptor complex member 2 (Homo sapiens), O14653 (parent)
chain: B1 chain
partner: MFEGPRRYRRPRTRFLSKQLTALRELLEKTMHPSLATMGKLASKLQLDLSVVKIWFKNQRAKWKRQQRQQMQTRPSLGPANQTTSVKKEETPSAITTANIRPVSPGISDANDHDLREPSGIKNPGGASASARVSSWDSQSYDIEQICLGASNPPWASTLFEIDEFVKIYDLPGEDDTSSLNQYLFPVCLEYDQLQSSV
B6: Golgi SNAP receptor complex member 2 (Homo sapiens), O14653 (parent)
chain: B1 chain
partner: B2 partner
B7: Ceroid-lipofuscinosis neuronal protein 6 (Homo sapiens), Q9NWW5 (parent)
chain: MEATRRRQHLGATGGPGAQLGASFLQARHGSVSADEAARTAPFHLDLWFYFTLQNWVLDFGRPIAMLVFPLEWFPLNKPSVGDYFHMAYNVITPFLLLKLIERSPRTLPRSITYVSIIIFIMGASIHLVGDSVNHRLLFSGYQHHLSVRENPIIKNLKPETLIDSFELLYYYDEYLGHCMWYIPFFLILFMYFSGCFTASKAESLIPGPALLLVAPSGLYYWYLVTEGQIFILFIFTFFAMLALVLHQKRKRLFLDSNGLFLFSSFALTLLLVALWVAWLWNDPVLRKKYPGVIYVPEPWAFYTLHVSSRH
partner: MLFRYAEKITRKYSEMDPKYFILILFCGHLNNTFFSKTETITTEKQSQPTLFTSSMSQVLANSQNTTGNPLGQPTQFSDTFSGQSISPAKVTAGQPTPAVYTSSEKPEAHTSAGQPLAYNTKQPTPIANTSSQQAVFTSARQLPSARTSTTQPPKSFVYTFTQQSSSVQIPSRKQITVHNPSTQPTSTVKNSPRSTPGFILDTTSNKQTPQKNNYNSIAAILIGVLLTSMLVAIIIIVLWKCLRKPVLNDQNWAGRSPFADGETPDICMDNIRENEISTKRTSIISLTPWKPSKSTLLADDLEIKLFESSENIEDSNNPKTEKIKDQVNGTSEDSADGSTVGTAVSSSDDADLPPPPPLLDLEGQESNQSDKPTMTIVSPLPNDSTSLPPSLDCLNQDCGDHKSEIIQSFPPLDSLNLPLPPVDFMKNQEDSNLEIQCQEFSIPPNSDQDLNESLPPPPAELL
B8: Golgi SNAP receptor complex member 2 (Homo sapiens), O14653 (parent)
chain: B1 chain
partner: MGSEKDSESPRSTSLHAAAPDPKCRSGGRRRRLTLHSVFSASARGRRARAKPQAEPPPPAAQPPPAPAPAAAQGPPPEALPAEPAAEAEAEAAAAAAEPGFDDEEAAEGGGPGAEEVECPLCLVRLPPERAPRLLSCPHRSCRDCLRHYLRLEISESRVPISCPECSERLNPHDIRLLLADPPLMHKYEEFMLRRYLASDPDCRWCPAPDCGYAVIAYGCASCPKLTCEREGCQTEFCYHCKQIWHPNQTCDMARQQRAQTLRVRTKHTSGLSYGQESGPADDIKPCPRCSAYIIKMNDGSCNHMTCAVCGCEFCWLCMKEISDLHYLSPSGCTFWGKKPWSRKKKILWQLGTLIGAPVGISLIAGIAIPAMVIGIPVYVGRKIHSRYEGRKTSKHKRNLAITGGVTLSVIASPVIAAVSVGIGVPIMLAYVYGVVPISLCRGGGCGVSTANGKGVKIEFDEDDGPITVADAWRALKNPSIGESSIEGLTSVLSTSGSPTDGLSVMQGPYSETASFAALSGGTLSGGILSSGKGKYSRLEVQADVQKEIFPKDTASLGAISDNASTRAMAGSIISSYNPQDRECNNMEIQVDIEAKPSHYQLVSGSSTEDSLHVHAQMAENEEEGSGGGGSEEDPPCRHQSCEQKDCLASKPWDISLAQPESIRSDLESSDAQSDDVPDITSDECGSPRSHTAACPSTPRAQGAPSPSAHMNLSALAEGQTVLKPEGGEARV
B9: Very-long-chain enoyl-CoA reductase (Homo sapiens), Q9NZ01 (parent)
chain: MKHYEVEILDAKTREKLCFLDKVEPHATIAEIKNLFTKTHPQWYPARQSLRLDPKGKSLKDEDVLQKLPVGTTATLYFRDLGAQISWVTVFLTEYAGPLFIYLLFYFRVPFIYGHKYDFTSSRHTVVHLACICHSFHYIKRLLETLFVHRFSHGTMPLRNIFKNCTYYWGFAAWMAYYINHPLYTPPTYGAQQVKLALAIFVICQLGNFSIHMALRDLRPAGSKTRKIPYPTKNPFTWLFLLVSCPNYTYEVGSWIGFAIMTQCLPVALFSLVGFTQMTIWAKGKHRSYLKEFRDYPPLRMPIIPFLL
partner: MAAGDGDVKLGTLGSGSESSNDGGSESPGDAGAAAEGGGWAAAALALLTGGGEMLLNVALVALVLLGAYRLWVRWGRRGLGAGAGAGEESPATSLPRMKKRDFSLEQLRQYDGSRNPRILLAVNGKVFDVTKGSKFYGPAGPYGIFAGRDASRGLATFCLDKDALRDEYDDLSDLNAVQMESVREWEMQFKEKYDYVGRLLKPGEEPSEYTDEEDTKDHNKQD

Variants of: B1
Conditions: with RIC3, Q7Z5B4-5

**Q.** How did the “effect of a mutation on the interaction” value turn out when G144W was run?
**A.** disrupting interaction strength

Variants of: B2
Conditions: with FAM209A

**Q.** How did the “effect of a mutation on the interaction” value turn out when Y441S was run?
**A.** disrupting interaction strength

Variants of: B3
Conditions: with jagn1_human JAGN1, Q8N5M9

**Q.** G144W was tested. Which “effect of a mutation on the interaction” value did it give?
**A.** with no effect

Variants of: B4
Conditions: with lrc4c_human LRRC4C

**Q.** How did the “effect of a mutation on the interaction” value turn out when Y441S was run?
**A.** disrupting interaction strength

Variants of: B5
Conditions: with leutx_human LEUTX

**Q.** G144W was tested. Which “effect of a mutation on the interaction” value did it give?
**A.** with no effect

Variants of: B6
Conditions: with FAM209A

**Q.** G144W was tested. Which “effect of a mutation on the interaction” value did it give?
**A.** with no effect

Variants of: B7
Conditions: with EVI2B

**Q.** For R6T, which “effect of a mutation on the interaction” value is on record?
**A.** with no effect

**Q.** Which “effect of a mutation on the interaction” value does the source give for L47F here?
**A.** with no effect

**Q.** With G123D as the variant, how does the “effect of a mutation on the interaction” value read?
**A.** with no effect

Variants of: B8
Conditions: with rn19b_human RNF19B

**Q.** With G144W as the variant, how does the “effect of a mutation on the interaction” value read?
**A.** with no effect

Variants of: B9
Conditions: with pgrc2_human PGRMC2, O15173

**Q.** With P182L as the variant, how does the “effect of a mutation on the interaction” value read?
**A.** with no effect
